In article PMC5019376:

B1: TIR1 (wild type, epitope-tagged, expressed in Nicotiana) [Arabidopsis] / GST-IAA3 [Arabidopsis] (parent)
chain 1: MQKRIALSFPEEVLEHVFSFIQLDKDRNSVSLVCKSWYEIERWCRRKVFIGNCYAVSPATVIRRFPKVRSVELKGKPHFADFNLVPDGWGGYVYPWIEAMSSSYTWLEEIRLKRMVVTDDCLELIAKSFKNFKVLVLSSCEGFSTDGLAAIAATCRNLKELDLRESDVDDVSGHWLSHFPDTYTSLVSLNISCLASEVSFSALERLVTRCPNLKSLKLNRAVPLEKLATLLQRAPQLEELGTGGYTAEVRPDVYSGLSVALSGCKELRCLSGFWDAVPAYLPAVYSVCSRLTTLNLSYATVQSYDLVKLLCQCPKLQRLWVLDYIEDAGLEVLASTCKDLRELRVFPSEPFVMEPNVALTEQGLVSVSMGCPKLESVLYFCRQMTNAALITIARNRPNMTRFRLCIIEPKAPDYLTLEPLDIGFGAIVEHCKDLRRLSLSGLLTDKVFEYIGTYAKKMEMLSVAFAGDSDLGMHHVLSGCDSLRKLEIRDCPFGDKALLANASKLETMRSLWMSSCSVSFGACKLLGQKMPKLNVEVIDERGAPDSRPESCPVERVFIYRTVAGPRFDMPGFVWNMDQDSTMRFSRQIITTNGL
chain 2: MDEFVNLKETELRLGLPGTDNVCEAKERVSCCNNNNKRVLSTDTEKEIESSSRKTETSPPRKAQIVGWPPVRSYRKNNIQSKKNESEHEGQGIYVKVSMDGAPYLRKIDLSCYKGYSELLKALEVMFKFSVGEYFERDGYKGSDFVPTYEDKDGDWMLIGDVPWEMFICTCKRLRIMKGSEAKGLGCGV

Variants of: B1
Assay: pull-down (semi in vitro, GST-IAA3 with Nicotiana cell extracts, anti-HA blot)
Conditions: 10 µM 2,4-D

Point of comparison: chain 1 F143A, ratio to parent 0.5. Against it:
- chain 1 C140A — higher, 0.62
- chain 1 I151A — lower, 0.46
- chain 1 V117A — lower, 0.44
- chain 1 G142A — lower, 0.45
